Test results reported in patent US20050169843A1.
Blank lines part the entries; values can stand above or below the molecule they belong to. Primed or numbered codes have the meaning given here. FITC′ = fluorescein isothiocyanate label

Key:
[1] = system: T1, Gly-Pro-Leu-Gly-Val-Arg-Gly-Lys(FITC)-Cys-NH2 (MMP-2 peptide substrate)
T1 sequence: GPLGVRGKC

[2] = system: T2, Gly-Val-Arg-Leu-Gly-Pro-Gly-Lys(FITC)-Cys-NH2 (scrambled control peptide)
T2 sequence: GVRLGPGKC

thrombin = assay: cell-based or functional assay
[3] = system: T3, Gly-D-Phe-Pip-Arg-Pro-Gly-Gly-Gly-Gly-Lys(FITC)-Cys-NH2 (control peptide)
T3 sequence: GFXRPGGGGKC

[4] = system: T4, Gly-D-Phe-Pip-Arg-Ser-Gly-Gly-Gly-Gly-Lys(FITC)-Cys-NH2 (thrombin substrate peptide)
T4 sequence: GFXRSGGGGKC

[5] = system: Cy-PL-MPEG at 20% fluorochrome loading (11 of 55 free amino groups labelled with Cy5.5)
[6] = target: MMP-1 (human rheumatoid synovial fibroblast, Calbiochem), APMA activated (human) (UniProt P03956); assay: cell-based or functional assay
[7] = target: MMP-2 (gelatinase 72 kD, Boehringer Mannheim), activated with p-aminophenyl mercuric acid; assay: cell-based or functional assay
[8] = target: MMP-2 (human recombinant protein purified from mammalian cells, Calbiochem), APMA activated (human) (UniProt P08253); assay: cell-based or functional assay
[9] = target: T5, MMP-7 (human recombinant, E. Coli, Calbiochem), APMA activated (human) (UniProt P09237); assay: cell-based or functional assay
T5 sequence (looked up): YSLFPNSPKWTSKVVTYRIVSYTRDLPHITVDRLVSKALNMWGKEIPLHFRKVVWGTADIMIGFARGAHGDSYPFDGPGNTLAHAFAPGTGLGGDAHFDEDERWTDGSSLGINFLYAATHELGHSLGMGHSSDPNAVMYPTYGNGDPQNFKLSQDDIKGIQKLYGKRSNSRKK

[10] = target: MMP-8 (human neutrophil granulocyte, Calbiochem), APMA activated (human) (UniProt P22894); assay: cell-based or functional assay
[11] = target: MMP-9 (human recombinant protein purified from mammalian cells, Oncogene Research Products), APMA activated (human) (UniProt P14780); assay: cell-based or functional assay
Sequence of MMP-9 (human recombinant protein purified from mammalian cells, Oncogene Research Products), APMA activated (human) (P14780 107-707 limits assumed): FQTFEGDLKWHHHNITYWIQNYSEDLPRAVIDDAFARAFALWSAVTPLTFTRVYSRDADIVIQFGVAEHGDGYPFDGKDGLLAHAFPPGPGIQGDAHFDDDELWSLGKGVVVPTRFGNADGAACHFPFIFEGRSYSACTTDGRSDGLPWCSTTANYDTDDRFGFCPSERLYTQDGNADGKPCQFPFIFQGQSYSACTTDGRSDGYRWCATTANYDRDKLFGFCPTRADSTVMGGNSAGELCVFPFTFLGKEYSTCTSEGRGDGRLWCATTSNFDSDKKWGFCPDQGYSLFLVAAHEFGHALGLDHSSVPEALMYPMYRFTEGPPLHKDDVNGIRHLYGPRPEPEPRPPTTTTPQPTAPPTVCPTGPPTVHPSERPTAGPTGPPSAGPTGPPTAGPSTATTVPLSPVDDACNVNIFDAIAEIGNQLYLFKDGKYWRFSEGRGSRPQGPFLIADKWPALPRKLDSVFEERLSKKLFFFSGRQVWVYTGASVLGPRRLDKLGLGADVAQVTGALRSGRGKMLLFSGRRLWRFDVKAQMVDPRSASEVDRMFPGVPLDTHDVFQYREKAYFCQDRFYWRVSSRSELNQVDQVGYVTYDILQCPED

Sequence of MMP-1 (human rheumatoid synovial fibroblast, Calbiochem), APMA activated (human) (P03956 100-469 limits assumed): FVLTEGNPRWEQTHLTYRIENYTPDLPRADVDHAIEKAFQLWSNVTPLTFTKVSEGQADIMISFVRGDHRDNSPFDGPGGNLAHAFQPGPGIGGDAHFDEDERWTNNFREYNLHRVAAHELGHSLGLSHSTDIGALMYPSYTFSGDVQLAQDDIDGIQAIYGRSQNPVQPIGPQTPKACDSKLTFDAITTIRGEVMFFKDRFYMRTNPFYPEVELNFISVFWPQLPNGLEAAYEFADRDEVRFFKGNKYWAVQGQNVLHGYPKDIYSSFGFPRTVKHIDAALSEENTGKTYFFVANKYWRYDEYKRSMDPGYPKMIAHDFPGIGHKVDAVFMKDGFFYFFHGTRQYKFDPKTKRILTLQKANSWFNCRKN
Sequence of MMP-2 (human recombinant protein purified from mammalian cells, Calbiochem), APMA activated (human) (P08253 110-660 limits assumed): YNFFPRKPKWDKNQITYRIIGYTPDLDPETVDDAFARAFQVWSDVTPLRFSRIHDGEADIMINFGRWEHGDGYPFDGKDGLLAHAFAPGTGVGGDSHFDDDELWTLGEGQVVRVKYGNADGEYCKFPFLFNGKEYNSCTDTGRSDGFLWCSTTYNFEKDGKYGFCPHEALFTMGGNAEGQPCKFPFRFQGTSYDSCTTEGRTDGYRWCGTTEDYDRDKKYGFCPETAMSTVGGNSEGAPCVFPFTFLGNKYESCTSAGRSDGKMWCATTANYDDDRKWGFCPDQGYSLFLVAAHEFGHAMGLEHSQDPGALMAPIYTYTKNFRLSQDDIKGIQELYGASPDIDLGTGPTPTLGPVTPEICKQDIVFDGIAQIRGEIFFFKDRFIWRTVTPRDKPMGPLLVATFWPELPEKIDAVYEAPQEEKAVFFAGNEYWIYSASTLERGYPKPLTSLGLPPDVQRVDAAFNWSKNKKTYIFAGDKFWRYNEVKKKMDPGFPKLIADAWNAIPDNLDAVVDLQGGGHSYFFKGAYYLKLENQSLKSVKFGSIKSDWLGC
Sequence of MMP-8 (human neutrophil granulocyte, Calbiochem), APMA activated (human) (P22894 101-467 limits assumed): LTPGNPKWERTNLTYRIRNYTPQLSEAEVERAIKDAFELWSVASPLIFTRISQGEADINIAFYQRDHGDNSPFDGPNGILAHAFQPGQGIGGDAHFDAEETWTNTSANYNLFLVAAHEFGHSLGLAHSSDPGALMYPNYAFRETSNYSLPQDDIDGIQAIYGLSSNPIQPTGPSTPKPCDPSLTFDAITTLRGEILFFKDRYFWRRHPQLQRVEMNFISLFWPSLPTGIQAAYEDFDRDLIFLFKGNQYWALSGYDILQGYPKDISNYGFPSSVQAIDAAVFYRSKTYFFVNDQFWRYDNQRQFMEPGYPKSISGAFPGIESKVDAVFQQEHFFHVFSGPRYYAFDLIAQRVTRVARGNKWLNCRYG

Molecule: MMP-2 (gelatinase 72 kD, Boehringer Mannheim), activated with p-aminophenyl mercuric acid
cleavage followed by HPLC [1]: confirmed by HPLC showing only cleavage of the former but not the latter
cleavage followed by HPLC [2]: confirmed by HPLC showing only cleavage of the former but not the latter

NIRF signal after addition of thrombin (thrombin): 1 fold
Molecule: control probe (PGC graft copolymer carrying Cy5.5-labelled thrombin control peptide)

Molecule: thrombin
enzymatic assay, cleavage followed by HPLC [3]: there was no cleavage when the serine at P1′ position was replaced by a proline residue
enzymatic assay, cleavage followed by HPLC [4]: the peptide was recognized by thrombin and cleaved into two major products

Molecule: trypsin
fluorescence signal increase upon activation (trypsin cleavage of the backbone) [5]: Maximum fluorescence recovery was obtained at 20% loading (15-fold fluorescence signal increase upon activation)

relative fluorescence increase at equimolar conditions (scaled to active MMP-2 set to 100%) [6]: 19%
fluorescence increase in vitro [7]: < 850%
fluorescence activation (7 pmole enzyme, 10 pmole probe, 10 minutes, 37°) [8]: 4.7 AU
relative fluorescence increase at equimolar conditions (scaled to active MMP-2 set to 100%) [9]: 12%
relative fluorescence increase at equimolar conditions (scaled to active MMP-2 set to 100%) [10]: 28%
relative fluorescence increase at equimolar conditions (scaled to active MMP-2 set to 100%) [11]: 19%
B1: MMP-2 sensitive probe (PGC graft copolymer carrying Cy5.5-labelled MMP-2 substrate peptides) (peptide, part only; not given: graft copolymer backbone and dye, part only)
peptide: {Cy5.5}-GPLGVRGK(FITC′)C-NH2
modifications: not fully specified (residue 9); printed as GPLGVRGK(FITC)C-NH2; also: about 12 peptides per PGC graft copolymer
